# Measurements published in patent US20240384250A1, “FIBROBLAST GROWTH FACTOR 23 MODULATING COMPOUNDS” (THE UAB RESEARCH FOUNDATION, priority 2021, published 2024).
# T1: FGFR4 (Homo sapiens, UniProt P22455)
# T1 construct: Fc-FGFR4 protein (human ectodomain) was immobilized; purchased R&D Systems 685FR050
# T1 sequence (P22455 22-369 limits assumed): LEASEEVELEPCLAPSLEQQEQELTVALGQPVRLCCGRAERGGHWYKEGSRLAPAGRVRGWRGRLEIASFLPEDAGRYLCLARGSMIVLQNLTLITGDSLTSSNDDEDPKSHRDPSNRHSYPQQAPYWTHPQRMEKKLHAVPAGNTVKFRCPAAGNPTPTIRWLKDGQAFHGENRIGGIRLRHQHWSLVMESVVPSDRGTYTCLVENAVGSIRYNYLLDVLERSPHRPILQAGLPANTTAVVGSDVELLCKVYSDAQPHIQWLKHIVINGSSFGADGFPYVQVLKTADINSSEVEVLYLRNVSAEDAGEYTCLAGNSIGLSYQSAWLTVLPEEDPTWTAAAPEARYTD
# How the values were obtained:
# FGFR4 = target: T1, FGFR4; test: Plate-based binding assay, FGFR4 coated, FLAG-sKL detected with anti-FLAG HRP; details: 40 ng FGFR4 coated, 80 ng FLAG-sKL, compared with FGFR1c
# Description: (§1) Proteins were coated on 96-well plates (MaxiSorp; 439454, Thermo Fisher Scientific), and proteins were added to wells in 100 μl of enzyme-linked immunosorbent assay (ELISA) coating buffer (E107, Bethyl Laboratories) with a lid placed overtop and incubated at 4° C. overnight. Plates were washed 5× with 350 μl of assay buffer (50 mM Tris [pH 7.4], 200 mM NaCl, 0.01% Tween 20) on a 50 TS microplate washer (BioTek). Plates were blocked for 1 hour in 200 μl of assay buffer with 0.5% BSA. Plates were washed as before, and proteins were incubated on plates in 100 μl of assay buffer with 0.5% BSA. Proteins or heparin was incubated in orders described in the respective figure legends. Assays using FLAG-tag-based detection were incubated with anti-FLAG coupled to HRP at 1:20,000, and assays using Fc detection were incubated with anti-human Fc coupled to HRP at 1:10,000. […] Reactions were stopped with ELISA stop solution (E115, Bethyl Laboratories) and analyzed using the Synergy HI plate reader (BioTek) at 450 nm wavelength. […] As a control to remove background absorbance values, wells were coated with an equal amount of BSA to match the amount of protein coated in experimental wells and treated the same as experimental wells. […]
# [1] = test system: FGF1, FGF2, FGF7, FGF19, FGF21; test: Plate-based binding assay, other FGF isoforms coated, FLAG-sKL detected with anti-FLAG HRP; design: species or system human; details: 10 ng FGF coated, 40 ng FLAG-sKL
# Description: as §1
# [2] = test system: adult rat ventricular myocytes (ARVMs); test: Calcium transients and cell shortening in adult rat ventricular myocytes; assay type: cell-based
# Description: As done before,^69 adult male Wistar rats (150-200 g) were killed and hearts were quickly removed and cannulated via the ascending aorta on a Langendorff system where they were retrograde perfused and digested by type II collagenase. Hearts were perfused with calcium-free Tyrode's solution supplemented with 0.2 mmol/L of ethyleneglycol-bis-((3-aminoethylether)-N,N, N′,N′-tetraacetic acid for 3 minutes. For the digestion, hearts were perfused with Tyrode's solution containing 0.1 mmol/L of CaCl2), 1 mg/ml of type II collagenase (Worthington), and 1 mg/ml of BSA for 3 to 4 minutes at room temperature. Cells were resuspended in Tyrode's solution containing 1 mmol/L of CaCl2). Tyrode's solution contains 130 mM NaCl, 5.4 mM KCl, 0.4 mM NaH2PO4, 0.5 mM MgCl2, 25 mM N-2-hydroxyethylpiperazine-N-2-ethanesulfonic acid, and 22 mM glucose. Adult rat ventricular myocytes (ARVMs) were loaded with the fluorescent Ca^2+ dye Fluo-3 AM (Thermo Fisher Scientific) for cytosolic Ca^2+ measurements. […] Cytosolic Ca^2+ transients were recorded under 1 Hz of field stimulation using 2 parallel platinum electrodes. […] Cell contraction was stimulated as the difference in cell length between rest and contraction (during electrical stimulation), expressed as a percentage of shortening of the cell length. […]
binding of FLAG-sKL to coated FGFR4 (FGFR4),binding of FLAG-sKL to coated FGFR4 (FGFR4; listed as FLAG-sKL),binding of FLAG-sKL to other coated FGF isoforms [1],Molecule,"peak fluorescence [Ca2+]i transients (F/F0) ([2]; FGF23 10 ng/ml, 2 minutes perfusion)",cell contraction (cell shortening) ([2]; FGF23 alone)
to a lesser extent,to a lower extent,not observed,"sKL: recombinant soluble α-klotho ectodomain, mouse aa 35-982 and human aa 34-981, FLAG- or Strep/His-tagged, purified from HEK293 cells (protein, left off: small tags and cut ends, recombinant soluble α-klotho ectodomain, mouse aa 35-982 and human aa 34-981, FLAG- or Strep/His-tagged, purified from HEK293 cells) EPGDGAQTWARFSRPPAPEAAGLFQGTFPDGFLWAVGSAAYQTEGGWQQHGKGASIWDTFTHHPLAPPGDSRNASLPLGAPSPLQPATGDVASDSYNNVFRDTEALRELGVTHYRFSISWARVLPNGSAGVPNREGLRYYRRLLERLRELGVQPVVTLYHWDLPQRLQDAYGGWANRALADHFRDYAELCFRHFGGQVKYWITIDNPYVVAWHGYATGRLAPGIRGSPRLGYLVAHNLLLAHAKVWHLYNTSFRPTQGGQVSIALSSHWINPRRMTDHSIKECQKSLDFVLGWFAKPVFIDGDYPESMKNNLSSILPDFTESEKKFIKGTADFFALCFGPTLSFQLLDPHMKFRQLESPNLRQLLSWIDLEFNHPQIFIVENGWFVSGTTKRDDAKYMYYLKKFIMETLKAIKLDGVDVIGYTAWSLMDGFEWHRGYSIRRGLFYVDFLSQDKMLLPKSSALFYQKLIEKNGFPPLPENQPLEGTFPCDFAWGVVDNYIQVDTTLSQFTDLNVYLWDVHHSKRLIKVDGVVTKKRKSYCVDFAAIQPQIALLQEMHVTHFRFSLDWALILPLGNQSQVNHTILQYYRCMASELVRVNITPVVALWQPMAPNQGLPRLLARQGAWENPYTALAFAEYARLCFQELGHHVKLWITMNEPYTRNMTYSAGHNLLKAHALAWHVYNEKFRHAQNGKISIALQADWIEPACPFSQKDKEVAERVLEFDIGWLAEPIFGSGDYPWVMRDWLNQRNNFLLPYFTEDEKKLIQGTFDFLALSHYTTILVDSEKEDPIKYNDYLEVQEMTDITWLNSPSQVAVVPWGLRKVLNWLKFKYGDLPMYIISNGIDDGLHAEDDQLRVYYMQNYINEALKAHILDGINLCGYFAYSFNDRTAPRFGLYRYAADQFEPKASMKHYRKIIDSNGFPGPETLERFCPEEFTVCTECSFFHTRKS",–,–
–,–,–,FGF23: recombinant fibroblast growth factor 23 protein from R&D Systems (protein) YPDTSPLLGSNWGSLTHLYTATARTSYHLQIHRDGHVDGTPHQTIYSALMITSEDAGSVVITGAMTRRFLCMDLHGNIFGSLHFSPENCKFRQWTLENGYDVYLSQKHHYLVSLGRAKRIFQPGTNPPPFSQFLARRNEVPLLHFYTVRPRRHTRSAEDPPERDPLNVLKPRPRATPVPVSCSRELPSAEEGGPAASDPLGVLRRGRGDARGGAGGADRCRPFPRFV,increased systolic,increased cell contraction
